Experimental data: patent US20060188526A1, “Method for enhancing the immune response to Staphylococcus aureus infection” (priority 2005, published 2006)

Key:
[1] = molecular target: T1, C3b bound to S. aureus surface (Homo sapiens, UniProt P01024); assay: C3-fragments bound to C3b-coated S. aureus with factor H, factor I or both (ELISA, Western blot); type: biochemical
T1 construct: purchased Advance Research Technologies, San Diego, Calif
Procedure: Opsonization with purified complement components. Washed bacteria (1×10^9 CFU in GVBS^++ buffer) were incubated with 0.35% IVIg for 30 min. at room temperature in order to sensitize the bacteria for activating the classical complement pathway. Antibody-coated bacteria were then incubated in 60% DGVBS^++ buffer with the purified human complement proteins C1, C4, C2, and C3 to generate the classical complement pathway C3-convertase and bind C3b to the S. aureus surface. Bacteria were incubated with C1 (2 μg/ml) at 30° C. for 15 min., and then with C4 (10 μg/ml) at 37° C. for 45 min. Bacteria were then incubated with C2 (0.5 μg/ml) and C3 (10 μg/ml) together at 30° C. for 30 min. C3b-coated staphylococci were then incubated with factor H (40 μg/ml), factor 1 (4 μg/ml), or both factors for 30 min. at 37° C. The bacteria pellet was then sedimented and the supernatants recovered to measure C3-fragments released from the bacteria. The bacteria were then washed and treated with 0.05 ml of 25 mM methylamine (Sigma-Aldrich) for 60 min. at 37° C. to recover C3-fragments bound by ester bonds to the S. aureus surface. The stripped bacteria were sedimented and the supernatants containing previously surface bound C3-fragments were recovered for testing by ELISA and Western blot. […]
(§1) Analysis of surface-bound and released C3-fragments. ELISA was used to quantitate total C3-fragment amount and iC3b amount as follows. […] Plates were washed 3 three times with PBS/Tween buffer and developed with TMB Plus (Accurate Chemical), stopped with 2.5 N H2SO4, and read at 450 nm.
Values for C3-fragments bound and iC3b bound to S. aureus opsonized in serum were calculated subtracting the values obtained with heat inactivated serum from the values obtained with NHS. Methylamine supernatants of surface bound C3-fragments were analyzed by Western blot analysis performed with polyclonal goat anti-human C3 antibody (Advanced Research Technologies) and horseradish peroxidase-labeled rabbit anti-goat antibody (Sigma-Aldrich). Bound antibody was detected by enhanced chemiluminescence.

[2] = molecular target: T1, C3b bound to S. aureus surface; assay: C3-fragments released from C3b-coated S. aureus with factor H, factor I or both (C3 ELISA, Western blot); type: biochemical
Procedure: Opsonization with purified complement components. Washed bacteria (1×10^9 CFU in GVBS^++ buffer) were incubated with 0.35% IVIg for 30 min. at room temperature in order to sensitize the bacteria for activating the classical complement pathway. Antibody-coated bacteria were then incubated in 60% DGVBS^++ buffer with the purified human complement proteins C1, C4, C2, and C3 to generate the classical complement pathway C3-convertase and bind C3b to the S. aureus surface. Bacteria were incubated with C1 (2 μg/ml) at 30° C. for 15 min., and then with C4 (10 μg/ml) at 37° C. for 45 min. Bacteria were then incubated with C2 (0.5 μg/ml) and C3 (10 μg/ml) together at 30° C. for 30 min. C3b-coated staphylococci were then incubated with factor H (40 μg/ml), factor 1 (4 μg/ml), or both factors for 30 min. at 37° C. […]
as §1
Values for C3-fragments bound and iC3b bound to S. aureus opsonized in serum were calculated subtracting the values obtained with heat inactivated serum from the values obtained with NHS. […] Bound antibody was detected by enhanced chemiluminescence.

[3] = test system: C3b-coated S. aureus phagocytosis by human polymorphonuclear leukocytes (PMN); assay: Phagocytosis assay, C3b-coated S. aureus (purified complement components) incubated with factor H, factor I or both; type: cell-based; settings: compared with untreated C3b-coated S. aureus, factor H 40 μg/ml, factor I 4 μg/ml
Procedure: Bacterial strains and growth. Staphylococcus aureus strain Reynolds, capsule polysaccharide serotype 5, was used in all experiments. This strain has a pattern of C3-fragment deposition similar to other capsule polysaccharide serotype 5 and 8 strains—the serotypes that account for the majority of human S. aureus infections. Mid-logarithmic phase bacteria were grown in Columbia 2% NaCl broth at 37° C. with agitation for 2 hours to an optical densitometry of 0.7 to 1.3 at 600 nm. In midlogarithmic phase growth minimal capsule is expressed by strain Reynolds.
Opsonization with purified complement components. Washed bacteria (1×10^9 CFU in GVBS^++ buffer) were incubated with 0.35% IVIg for 30 min. at room temperature in order to sensitize the bacteria for activating the classical complement pathway. Antibody-coated bacteria were then incubated in 60% DGVBS^++ buffer with the purified human complement proteins C1, C4, C2, and C3 to generate the classical complement pathway C3-convertase and bind C3b to the S. aureus surface. […]
Phagocytosis assay. […] Bacteria and PMN were visualized by fluorescence microscopy using broad wavelength excitation and emission filters that allow visualization at 100× magnification. Microscope slides were blinded to the reader, and 100 neutrophils per slide were counted to determine the percent of PMN phagocytosing bacteria and total number of S. aureus ingested.

T1 sequence (P01024 749-1663): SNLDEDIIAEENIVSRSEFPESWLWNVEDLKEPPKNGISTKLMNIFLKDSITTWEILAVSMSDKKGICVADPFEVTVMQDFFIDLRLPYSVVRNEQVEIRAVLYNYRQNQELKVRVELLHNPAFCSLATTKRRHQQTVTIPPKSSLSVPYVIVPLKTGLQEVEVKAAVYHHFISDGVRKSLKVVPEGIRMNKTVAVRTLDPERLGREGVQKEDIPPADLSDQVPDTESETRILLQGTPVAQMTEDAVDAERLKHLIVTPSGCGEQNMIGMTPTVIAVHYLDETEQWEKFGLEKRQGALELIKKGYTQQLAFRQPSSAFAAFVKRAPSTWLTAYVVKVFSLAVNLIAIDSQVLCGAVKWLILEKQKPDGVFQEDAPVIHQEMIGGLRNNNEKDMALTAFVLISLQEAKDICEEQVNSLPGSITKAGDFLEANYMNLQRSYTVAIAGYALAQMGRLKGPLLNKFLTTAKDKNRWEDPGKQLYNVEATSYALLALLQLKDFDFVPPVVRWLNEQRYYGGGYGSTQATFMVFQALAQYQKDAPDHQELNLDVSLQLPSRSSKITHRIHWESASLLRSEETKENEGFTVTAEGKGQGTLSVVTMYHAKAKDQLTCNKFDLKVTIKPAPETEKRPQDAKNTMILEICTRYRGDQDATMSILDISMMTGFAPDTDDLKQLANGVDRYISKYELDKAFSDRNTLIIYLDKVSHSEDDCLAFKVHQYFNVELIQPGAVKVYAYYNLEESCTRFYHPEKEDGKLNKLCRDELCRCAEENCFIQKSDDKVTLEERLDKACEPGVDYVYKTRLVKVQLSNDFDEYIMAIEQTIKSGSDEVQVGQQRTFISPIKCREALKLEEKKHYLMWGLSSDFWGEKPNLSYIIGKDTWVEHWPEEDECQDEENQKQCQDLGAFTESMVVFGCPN
T1 sequence (P01024 23-667): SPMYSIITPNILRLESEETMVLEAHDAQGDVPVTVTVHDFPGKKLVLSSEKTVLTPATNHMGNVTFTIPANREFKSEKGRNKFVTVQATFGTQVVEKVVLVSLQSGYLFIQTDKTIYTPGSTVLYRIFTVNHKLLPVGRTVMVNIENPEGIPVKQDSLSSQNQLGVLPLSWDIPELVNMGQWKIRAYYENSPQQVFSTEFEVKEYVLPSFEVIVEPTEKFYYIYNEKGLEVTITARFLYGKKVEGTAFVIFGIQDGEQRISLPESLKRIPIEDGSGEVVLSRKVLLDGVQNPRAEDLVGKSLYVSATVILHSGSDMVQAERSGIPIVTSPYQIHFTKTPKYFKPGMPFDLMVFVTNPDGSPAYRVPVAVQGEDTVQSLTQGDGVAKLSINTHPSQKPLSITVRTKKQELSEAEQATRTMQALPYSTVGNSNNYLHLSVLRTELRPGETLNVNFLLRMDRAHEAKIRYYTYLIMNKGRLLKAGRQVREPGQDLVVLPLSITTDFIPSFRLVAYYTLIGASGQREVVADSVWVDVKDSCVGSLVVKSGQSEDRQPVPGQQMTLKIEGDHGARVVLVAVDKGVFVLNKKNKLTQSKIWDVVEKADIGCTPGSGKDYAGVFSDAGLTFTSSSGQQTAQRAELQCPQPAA

B1: factor I: purified human complement regulatory protein factor I, serum enzyme that cleaves C3b to iC3b (protein, UniProt P05156 19-583, looked up)
Complement factor I: KVTYTSQEDLVEKKCLAKKYTHLSCDKVFCQPWQRCIEGTCVCKLPYQCPKNGTAVCATNRRSFPTYCQQKSLECLHPGTKFLNNGTCTAEGKFSVSLKHGNTDSEGIVEVKLVDQDKTMFICKSSWSMREANVACLDLGFQQGADTQRRFKLSDLSINSTECLHVHCRGLETSLAECTFTKRRTMGYQDFADVVCYTQKADSPMDDFFQCVNGKYISQMKACDGINDCGDQSDELCCKACQGKGFHCKSGVCIPSQYQCNGEVDCITGEDEVGCAGFASVTQEETEILTADMDAERRRIKSLLPKLSCGVKNRMHIRRKRIVGGKRAQLGDLPWQVAIKDASGITCGGIYIGGCWILTAAHCLRASKTHRYQIWTTVVDWIHPDLKRIVIEYVDRIIFHENYNAGTYQNDIALIEMKKDGNKKDCELPRSIPACVPWSPYLFQPNDTCIVSGWGREKDNERVFSLQWGEVKLISNCSKFYGNRFYEKEMECAGTYDGSIDACKGDSGGPLVCMDANNVTYVWGVVSWGENCGKPEFPGVYTKVANYFDWISYHVGRPFISQYNV
decrease of amount of total C3-fragments bound to C3b-coated S. aureus ([1]; C3 ELISA, compared to control bacteria (no factor H or I exposure), FIG. 4B): 58% | types of C3-fragments bound to the S. aureus surface, Western blot ([1]; compared with untreated C3b-coated S. aureus, FIG. 4C): less C3b and more iC3b | increase of amount of iC3b bound to S. aureus ([1]; iC3b ELISA, compared with untreated C3b-coated bacteria, FIG. 4A): 75% | amounts of C3-fragments shed from the S. aureus surface ([2]; C3 ELISA, compared with incubation in buffer alone, FIG. 5A): increased significantly | form of C3-fragments shed, Western blot with polyclonal anti-C3 antibody ([2]; FIG. 5B): likely iC3b or possibly C3c | decrease of percent of neutrophils phagocytosing C3b-coated S. aureus ([3]; FIG. 3A): 29% | decrease of number of C3b-coated S. aureus phagocytosed by 100 neutrophils ([3]; FIG. 3B): 40%
